Results taken from patent US20250381284A1 (Eli Lilly, published 2025).

Molecular target: T1, human TfR ECD (human, UniProt P02786 89-760)
T1 construct: extracellular domain; also called Human Transferrin Receptor 1 extracellular domain
Assay: SPR (Biacore 8K), human TfR ECD amine-coupled on CM3 chip, 25 C, 2-state model
Description: Target human TfR ECDs were immobilized on a CM3 chip (Cytiva P/N BR100536) using standard NHS-EDC amine coupling. The TfR binding proteins were prepared at a final concentration of 1.8, 0.6, 0.2, 0.067, 0.022, 0.0074, 0.0025 μM respectively by dilution of stock solution into running buffer.
Binding analysis was performed in a single-cycle or multi-cycle kinetics manner. Each analysis cycle consisted of (1) injection of the lowest to highest concentration proteins over all flow channel at 50 μL/min for 200 seconds followed by return to buffer flow for 900 seconds to monitor dissociation phase; (2) regeneration of chip surfaces with injection of 3M magnesium chloride, for 30 seconds at […] over all cells; and (3) equilibration of chip surfaces with a 50 μL (30-sec) injection of HBS-EP+. Data were processed using standard double-referencing and fit to a 2-state binding model using Biacore 8K Evaluation software, to determine the association rate (kₒₙ, M⁻¹s⁻¹ units), dissociation rate (koff, s⁻¹ units), and Rₘₐₓ (RU units). The equilibrium dissociation constant (KD) is calculated from the relationship KD=koff/kₒₙ, and is in molar units.

Row | Kd | koff | kon | Binder
1 | 18.6 nM | 0.00671 s⁻¹ | 361000 M⁻¹ s⁻¹ | TBP8 (Fab2-VHH) (Fab) heavy: EVQLVESGGGLVKPGGSLRLSCVASGFTFSSYSMNWVRQAPGKGLEWVSSISSSSSYIYYADSVKGRFTISRDNAKNSLYLQMNSLRAEDTAVYYCARRHGYSNSDAFDTWGQGTLVTVSSASTKGPCVFPLAPSSKSTSGGTAALGCLVKDYFPEPVTVSWNSGALTSGVHTFPAVLQSSGLYSLSSVVTVPSSSLGTQTYICNVNHKPSNTKVDKRVGGGGQGGGGQGGGGQGGGGQGGGGQEVQLLESGGGLVQPGGSLRLSCAASGRYIDETAVAWFRQAPGKGREFVAGIGGGVDITYYADSVKGRFTISRDNSKNTLYLQMNSLRPEDTAVYYCGARPGRPLITSKVADLYPYWGQGTLVTVSSPP light: DIQMTQSPSAMSASVGDRVTITCRASQGISHYLVWFQQKPGKVPKRLIYAASSLQSGVPSRFSGSGSGTEFTLTISSLQPEDFATYYCLQHNSYPWTFGQGTKVEIKRTVAAPSVFIFPPSDEQLKSGTASVVCLLNNFYPREAKVQWKVDNALQSGNSQESVTEQDSKDSTYSLSSTLTLSKADYEKHKVYACEVTHQGLSSPVTKSFNRGE
2 | 12.4 nM | – | – | TBP5 (Fab1-One Arm Heteromab 2, S124C) (antibody, human IgG4 S228P, kappa, F234A L235A, One-arm heteromab, hIgG4 PAA, tested as the unconjugated protein; also called OAH2) heavy 1: EVQLVESGGGLVKPGGSLRLSCVASGFTFSSYSMNWVRQAPGKGLEWVSSISSSSSYIYYADSVKGRFTISRDNAKNSLYLQMNSLRAEDTAVYYCARRHGYSNSDAFDNWGQGTLVTVSSASTKGPCVFPLAPCSRSTSESTAALGCLVKDYFPEPVTVSWNSGALTSGVHTFPAVLQSSGLYSLSSVVTVPSSSLGTKTYTCNVDHKPSNTKVDKRVESKYGPPCPPCPAPEAAGGPSVFLFPPKPKDTLMISRTPEVTCVVVDVSQEDPEVQFNWYVDGVEVHNAKTKPREEQFNSTYRVVSVLTVLHQDWLNGKEYKCKVSNKGLPSSIEKTISKAKGQPREPQVSTLPPSQEEMTKNQVSLMCLVYGFYPSDIAVEWESNGQPENNYKTTPPVLDSDGSFFLYSVLTVDKSRWQEGNVFSCSVMHEALHNHYTQKSLSLSLG light: DIQMTQSPSAMSASVGDRVTITCRASQGISHYLVWFQQKPGKVPKRLIYAASSLQSGVPSRFSGSGSGTEFTLTISSLQPEDFATYYCLQHNSYPWTFGQGTKVEIKRTVAAPSVFIFPPSDEQLKSGTASVVCLLNNFYPREAKVQWKVDNALQSGNSQESVTEQDSKDSTYSLSSTLTLSKADYEKHKVYACEVTHQGLSSPVTKSFNRGEC heavy 2: ESKYGPPCPPCPAPEAAGGPSVFLFPPKPKDTLMISRTPEVTCVVVDVSQEDPEVQFNWYVDGVEVHNAKTKPREEQFNSTYRVVSVLTVLHQDWLNGKEYKCKVSNKGLPSSIEKTISKAKGQPREPQVYTLPPSQGDMTKNQVQLTCLVKGFYPSDIAVEWESNGQPENNYKTTPPVLDSDGSFFLASRLTVDKSRWQEGNVFSCSVMHEALHNHYTQKSLSLSLG
